Paper PMC4707517

Assays:
[1] = target: H1FL (H1 11-193 in Table 1, i.e. residues 1-193) S19C (mouse) (UniProt P10922); experiment: fluorescence (de)quenching; settings: 150 mM KCl (20 mM KCl for four-way junction and 4WJDNA), room temperature pre-incubation for competition, buffer and pH not given (HI-FI assay, ref 23)
[2] = target: H1 1-121 (delta72) S19C (mouse) (UniProt P10922); experiment: FRET competition; settings: 150 mM KCl (20 mM KCl for four-way junction and 4WJDNA); room temperature pre-incubation for competition; buffer and pH not given (HI-FI assay, ref 23)
[3] = target: H1 1-96 (delta97) S19C (mouse) (UniProt P10922); experiment: FRET competition; settings: 150 mM KCl (20 mM KCl for four-way junction and 4WJDNA); room temperature pre-incubation for competition; buffer and pH not given (HI-FI assay, ref 23)
[4] = target: H1FL (H1 11-193 in Table 1, i.e. residues 1-193) S19C (mouse) (UniProt P10922); experiment: FRET competition; settings: 150 mM KCl (20 mM KCl for four-way junction and 4WJDNA), room temperature pre-incubation for competition, buffer and pH not given (HI-FI assay, ref 23)
[5] = target: H1 1-121 (delta72) S19C (mouse) (UniProt P10922); experiment: FRET; settings: internal amino-C6-dT; 150 mM KCl (20 mM KCl for four-way junction and 4WJDNA); room temperature pre-incubation for competition; buffer and pH not given (HI-FI assay, ref 23)
[6] = target: H1 1-96 (delta97) S19C (mouse) (UniProt P10922); experiment: FRET; settings: internal amino-C6-dT; 150 mM KCl (20 mM KCl for four-way junction and 4WJDNA); room temperature pre-incubation for competition; buffer and pH not given (HI-FI assay, ref 23)
[7] = target: H1FL (H1 11-193 in Table 1, i.e. residues 1-193) S19C (mouse) (UniProt P10922); experiment: FRET; settings: internal amino-C6-dT; 150 mM KCl (20 mM KCl for four-way junction and 4WJDNA); room temperature pre-incubation for competition; buffer and pH not given (HI-FI assay, ref 23)
[8] = target: H1 1-121 (delta72) S19C (mouse) (UniProt P10922); experiment: fluorescence (de)quenching; settings: 150 mM KCl (20 mM KCl for four-way junction and 4WJDNA); room temperature pre-incubation for competition; buffer and pH not given (HI-FI assay, ref 23)
[9] = histone variant H2A.Z, mouse histones

**Q.** 4WJ15 four-way junction was tested. Which Kd [1] did it give?
**A.** 0.035 nM

**Q.** With 4WJDNA linear 30 bp as the substance, how does the Kd [1] read?
**A.** 3.75 nM

**Q.** How did the Kd [2] turn out when “AGGCCTGAGAATCCGGTGCCGAGGCCGCTCAATTGGTCGTAGACAGCTCTAGCACCGCTTAAACGCACGTACGCGCTGTCCCCCGCGTTTTAACCGCCAAGGGGATTACTCCCTAGTCTCCAGGCACGTGTCAGATATATACATCCAGGCCTTGTGTC (double strand) [A1/10 nucleosome]” was run?
**A.** 43.8 nM

**Q.** What about the Kd [3] of the same substance?
**A.** 140 nM

**Q.** “ATCCCTATACGCGGCCGCCCTGGAGAATCCCGGTGCCGAGGCCGCTCAATTGGTCGTAGACAGCTCTAGCACCGCTTAAACGCACGTACGCGCTGTCCCCCGCGTTTTAACCGCCAAGGGGATTACTCCCTAGTCTCCAGGCACGTGTCAGATATATACATCCGAT (double strand) [A18/1 nucleosome]” was tested. Which Kd [2] did it give?
**A.** 8.08 nM

**Q.** What about the Kd [3] of the same substance?
**A.** 208 nM

**Q.** What about the Kd [4] of the same substance?
**A.** 0.135 nM

**Q.** “ATCTAATACTAGGACCCTATACGCGGCCGCATCGGAGAATCCCGGTGCCGAGGCCGCTCAATTGGTCGTAGACAGCTCTAGCACCGCTTAAACGCACGTACGCGCTGTCCCCCGCGTTTTAACCGCCAAGGGGATTACTCCCTAGTCTCCAGGCACGTGTCAGATATATACATCGATTGCATGTGGATCCGAATTCATATTAATGAT (double strand) [S30/30 nucleosome]” was tested. Which Kd [2] did it give?
**A.** 1.85 nM

**Q.** And the Kd [3]?
**A.** 124 nM

**Q.** And the Kd [4]?
**A.** 0.0177 nM

**Q.** What about the IC50 ([4]; competitor of S31/30 (10 nM), 1 nM H1) of the same substance?
**A.** 3.7 nM

**Q.** And the Kd [1]?
**A.** 0.039 nM

**Q.** With “ATCTAATACTAGGACCCTATACGCGGCCGCATCGGAGAATCCCGGTGCCGAGGCCGCTCAATTGGTCGTAGACAGCTCTAGCACCGCTTAAACGCACGTACGCGCTGTCCCCCGCGTTTTAACCGCCAAGGGGATTACTCCCTAGTCTCCAGGCACGTGTCAGATATATACATCGATTGCATGTGGATCCGAATTCATATTAATGAT (double strand) [S30/30-H2A.Z nucleosome]” as the substance, how does the Kd [1, 9] read?
**A.** 0.051 nM

**Q.** What does the source list for “CGAGCCAGGCCTGAGAATCCGGTGCCGAGGCCGCTCAATTGGTCGTAGACAGCTCTAGCACCGCTTAAACGCACGTACGCGCTGTCCCCCGCGTTTTAACCGCCAAGGGGATTACTCCCTAGTCTCCAGGCACGTGTCAGATATATACATCCAGGCCTTGTGTCG (double strand) [S7/11 nucleosome]”?
**A.** Kd [2]: 3.26 nM; Kd [3]: 73.6 nM; Kd [4]: 1.73 nM

**Q.** With “CGCATCGGAGAATCCCGGTGCCGAGGCCGCTCAATTGGTCGTAGACAGCTCTAGCACCGCTTAAACGCACGTACGCGCTGTCCCCCGCGTTTTAACCGCCAAGGGGATTACTCCCTAGTCTCCAGGCACGTGTCAGATATATACATCGATTGCATGTGGATCCGAATTCATATTAATGAT (double strand) [A3/30 nucleosome]” as the substance, how does the Kd [5] read?
**A.** 10.4 nM

**Q.** What about the Kd [6] of the same substance?
**A.** 248 nM

**Q.** And the Kd [7]?
**A.** 0.112 nM

**Q.** How did the Kd [5] turn out when “GATCTAATACTAGGACCCTATACGCGGCCGCATCGGAGAATCCCGGTGCCGAGGCCGCTCAATTGGTCGTAGACAGCTCTAGCACCGCTTAAACGCACGTACGCGCTGTCCCCCGCGTTTTAACCGCCAAGGGGATTACTCCCTAGTCTCCAGGCACGTGTCAGATATATACATCGATTGCATGTGGATCCGAATTCATATTAATGAT (double strand) [S31/30 nucleosome]” was run?
**A.** 0.983 nM

**Q.** What about the Kd [6] of the same substance?
**A.** 86.3 nM

**Q.** What about the Kd [7] of the same substance?
**A.** 0.0484 nM

**Q.** For LE-Tri trinucleosome, which Kd [8] is on record?
**A.** 0.047 nM

**Q.** And the Kd ([1]; stoichiometry 3 H1 per trimer)?
**A.** 0.046 nM

**Q.** Which Kd [8] does the source give for NLE-Tri trinucleosome here?
**A.** 0.0638 nM

**Q.** And the Kd ([1]; stoichiometry 1 H1 per trimer)?
**A.** 0.042 nM

**Q.** Which Kd [1, 9] does the source give for NLE-Tri-H2A.Z trinucleosome here?
**A.** 0.023 nM

**Q.** What does the source list for “TCGGGATACGCGGCCGCCCTGGAGAATCCCGGTGCCGAGGCCGCTCAATTGGTCGTAGACAGCTCTAGCACCGCTTAAACGCACGTACGCGCTGTCCCCCGCGTTTTAACCGCCAAGGGGATTACTCCCTAGTCTCCAGGCACGTGTCAGATATATACATCCTGTGCATGTATTGAC (double strand) [S17/13 nucleosome]”?
**A.** Kd [2]: 0.947 nM; Kd [3]: 26.5 nM; Kd [4]: 0.23 nM
